Measured values reported in the DeepSol protein solubility set.

Test: soluble on expression in E. coli; label from the status in PepcDB or PDB records

**Q.** Which “soluble on expression in E. coli” value does the source give for “MSQSDEASVAEPTVVVATPVAVAVTAPATHPRKPPALVISTIACPTIYEQAPSKPASPTMPLSPYEGITADLMQRIQLFSSQFDHARLSPNYATSDLGSSARSSFSSTTSSFLTYRDRSVDFDEAGKELISPFDCDTNCSGTPYSLSTNSGNHFSFEARSVSSLGHSTAHFNQLLAAGAAYELSRERSRSESDMQPTQEDDVRHLNTSTISVPIYAKKPLHKFGGEIKRSSSTPPPTSDEREQVEQRLLLRPSSGMEIKKDLETTNSFVSSWAREQIFAMQNATMYNLLTARSAEDCSTISTPGPLKVFPRSKDDMTFAPRDDSSRAKQMQYPCTLCGQAFAVHDRLAKHIASRHRQRSCTLDDASKVHKCNMCSKSFSRSDMLTRHMRLHTGAKPYSCPTCNQVFSRSDHLSTHLRTHTGEKPYACPMCNYSASRRDMISRHMRTHSLTDDSSISTPISQLSIRSATTSPLPPKIGSTATVEIGSGLLSAFKPILSASSSNLLSVSSPFQSLSLSTPPSPSFAPIVLNRQLSFDVTMRNTTS” here?
**A.** soluble

**Q.** For “MFTLRELPFAKDSMGDFLSPVAFDFHHGKHHQTYVNNLNNLIKGTDFEKSSLFAILTKSSGGVFNNAAQIYNHDFYWDCLSPKATALSDELKGALEKDFGSLEKFKEDFIKSATTLFGSGWNWAAYNLDTQKIEIIQTSNAQTPVTDKKVPLLVVDVWEHAYYIDHKNARPVYLEKFYGHINWHFVSQCYEWAKKEGLGSVDYYINELVHKKL”, which “soluble on expression in E. coli” value is on record?
**A.** soluble

**Q.** For “MSDTPSKKQKRRATIFVTGPQSKKTIFEGEEIKEEGNQTTLQDLAIARQRLHNELAVVNTTSGIEILMQIVMDELEVVRHRLRENGQRMRNFFGDGAVQIRAILIRIFSKSISSRNMLEYKKDAKVILNELCDQNITYKMPRYTLNDMEEILLTDDLEDGVIQRRSEKWECLPERQKPMFDEDEDAFCEFRKMNVPMSMTFDDDDEDRLSMPSTRTGVTALTTEDQMAAIQNQLAMLSKQLMCLQKSGVETKRASSRASSRRGGIIAKKASLEISSNSSSDVSEDEGKGPSVCSPSSSSKTSTASVQLAPMCMAPPPPPPPPLPKMSQKIPLSEIKSDNKLSTVTPSKPAEKKSSPKSLPPAETIVSNRPYLTDIAHGRSMLKKTVRSPGGSPACQVRHQKRPVSSFEAALRDRFRGFHGDASFSEQEENGEDDDLSATWDE”, which “soluble on expression in E. coli” value is on record?
**A.** not soluble

**Q.** Which “soluble on expression in E. coli” value does the source give for “MAHHHHHHMSCRRFHKVLQANEEENEHAREAFLASWRSEYQQFLQSKLAALVWHVEHHCRSHVTPQTATSMACGEVPRMKVATTAPNSTTTASTNSNSAMMAEDAEQHDACNVLAHKQNRRTTLPSHFFLEQTPTSMPFYPREFIVEKEAQMFRQTNSPFTVGETPHGSQHSRTEINASTATVVPLPSVHKKETADRNSEKDDDRTAILAVSPSPRQISMHSPSQIEDDGSLDASLSPAATVAVTNVLTRTPGPAVQLQKMLPTEEVSKANLRKTIARLYSESVDTRSSWSDTWSQKKQRAASLLPPPSSASHMMHLKTMHVSHGTPCENMEASRNDMLSKKQLICELRRLYGLEDER” here?
**A.** soluble

**Q.** With “MIIGYFDGLCEPKNPGGIATFGFVIYLDNRKIEGYGLAEKPFSINSTNNVAEYSGLICLMETMLRLGISSPIIKGDSQLVIKQMNGEYKVKAKRIIPLYEKAIELKKKLNATLIWVPREENKEADRLSRVAYELVRRGKLRDIGCIILT” as the sequence, how does the “soluble on expression in E. coli” value read?
**A.** soluble

**Q.** For “MGSDKIHHHHHHNEKGGGTGSSSVGADTEPSVTGVHWTVDSVTVNGTTHQAPDGAHVEIAEDGRATGNYGCNSFHSTATFKGDRITLSRTLSTEMACEKRPMEFETTLARALAAGPLTAEAGQGKLTLTTAKGDRVHLTEEKDAPLYGTKWTVNSLIGGDVAQSLPAAADGKAWLTFTKKSESGDKKSGEKERGDKEVGTVSGSLGCNRVSAMATVRGSHITLGAPRTTRQMCSGSLMTTEKSLLKLFDSTVSYRIDHRAITLTSENGEGIGAIADR”, which “soluble on expression in E. coli” value is on record?
**A.** not soluble

**Q.** With “MAHHHHHHMTHYSRKPQVSSKSAKAKVSDLRCHYKNTFETANVINGMPLRKAQQLYRQVLAKTRCIPFKRYNGKIGRTAQAKEWGQTKGRWPRKSVVAMMSLLKNAEANAIEKGLDPNQMVIKHVQVDQAARMRRRTYRAHGRITPYMCSPCHVQLFMSEKKERVPAPKSAPKK” as the sequence, how does the “soluble on expression in E. coli” value read?
**A.** not soluble
